Target: FLAG-Aac2 (S. cerevisiae) (UniProt P18239)
Experiment: co-IP

Chain of UniProt P18239 (P18239 whole entry): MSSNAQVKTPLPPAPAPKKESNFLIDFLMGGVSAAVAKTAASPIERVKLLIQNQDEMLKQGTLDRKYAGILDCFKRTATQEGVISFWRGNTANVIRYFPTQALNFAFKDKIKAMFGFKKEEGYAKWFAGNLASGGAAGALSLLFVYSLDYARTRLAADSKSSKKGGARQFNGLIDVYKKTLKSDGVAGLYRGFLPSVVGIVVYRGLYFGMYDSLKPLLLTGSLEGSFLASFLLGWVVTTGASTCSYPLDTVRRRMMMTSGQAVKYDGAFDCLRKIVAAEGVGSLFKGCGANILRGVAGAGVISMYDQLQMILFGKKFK

percent decrease of the amount co-immunoprecipitated after BKA, against CATR [%] | Substance
25 | respiratory complex III (from UniProt P07256 27-457; P07257 17-368; P08067 31-215; P00127 1-147)
50 | respiratory complex IV (from UniProt P00401 1-534; P04037 26-155)

From paper PMC7455186
